This experiment has as its target 1_(1-117) (human), Q9H0R8. Put plainly: FP. As to conditions: modification not given.
Sequence of 1_(1-117) (human), Q9H0R8 (Q9H0R8 whole entry): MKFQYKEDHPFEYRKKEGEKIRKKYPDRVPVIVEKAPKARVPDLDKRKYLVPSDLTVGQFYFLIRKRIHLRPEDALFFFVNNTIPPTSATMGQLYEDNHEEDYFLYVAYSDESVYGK
On to LNSGVEYYWDQLNETV [AMBRA1-LIR], for which the inhibition constant (Ki) (commonly the dissociation constant of the complex between target and ligand, obtained from inhibition or displacement) was 163 µM.
As to AGLNSSWVELPMNSS [NIX-P2-LIR], the Ki came out at 3.7 µM.
To SDNSSGGDDDWTHLSSK [p62-LIR] belongs 5.5 µM.
